Measurements: patent publication US20190015483A1 (CSL BEHRING RECOMBINANT FACILITY, published 2019)

Target: T1, recombinant Factor VIII (CSL627, rVIII-SingleChain) (Homo sapiens (Human), UniProt P00451 20-2351)
T1 construct: also called FVIII
T1 sequence: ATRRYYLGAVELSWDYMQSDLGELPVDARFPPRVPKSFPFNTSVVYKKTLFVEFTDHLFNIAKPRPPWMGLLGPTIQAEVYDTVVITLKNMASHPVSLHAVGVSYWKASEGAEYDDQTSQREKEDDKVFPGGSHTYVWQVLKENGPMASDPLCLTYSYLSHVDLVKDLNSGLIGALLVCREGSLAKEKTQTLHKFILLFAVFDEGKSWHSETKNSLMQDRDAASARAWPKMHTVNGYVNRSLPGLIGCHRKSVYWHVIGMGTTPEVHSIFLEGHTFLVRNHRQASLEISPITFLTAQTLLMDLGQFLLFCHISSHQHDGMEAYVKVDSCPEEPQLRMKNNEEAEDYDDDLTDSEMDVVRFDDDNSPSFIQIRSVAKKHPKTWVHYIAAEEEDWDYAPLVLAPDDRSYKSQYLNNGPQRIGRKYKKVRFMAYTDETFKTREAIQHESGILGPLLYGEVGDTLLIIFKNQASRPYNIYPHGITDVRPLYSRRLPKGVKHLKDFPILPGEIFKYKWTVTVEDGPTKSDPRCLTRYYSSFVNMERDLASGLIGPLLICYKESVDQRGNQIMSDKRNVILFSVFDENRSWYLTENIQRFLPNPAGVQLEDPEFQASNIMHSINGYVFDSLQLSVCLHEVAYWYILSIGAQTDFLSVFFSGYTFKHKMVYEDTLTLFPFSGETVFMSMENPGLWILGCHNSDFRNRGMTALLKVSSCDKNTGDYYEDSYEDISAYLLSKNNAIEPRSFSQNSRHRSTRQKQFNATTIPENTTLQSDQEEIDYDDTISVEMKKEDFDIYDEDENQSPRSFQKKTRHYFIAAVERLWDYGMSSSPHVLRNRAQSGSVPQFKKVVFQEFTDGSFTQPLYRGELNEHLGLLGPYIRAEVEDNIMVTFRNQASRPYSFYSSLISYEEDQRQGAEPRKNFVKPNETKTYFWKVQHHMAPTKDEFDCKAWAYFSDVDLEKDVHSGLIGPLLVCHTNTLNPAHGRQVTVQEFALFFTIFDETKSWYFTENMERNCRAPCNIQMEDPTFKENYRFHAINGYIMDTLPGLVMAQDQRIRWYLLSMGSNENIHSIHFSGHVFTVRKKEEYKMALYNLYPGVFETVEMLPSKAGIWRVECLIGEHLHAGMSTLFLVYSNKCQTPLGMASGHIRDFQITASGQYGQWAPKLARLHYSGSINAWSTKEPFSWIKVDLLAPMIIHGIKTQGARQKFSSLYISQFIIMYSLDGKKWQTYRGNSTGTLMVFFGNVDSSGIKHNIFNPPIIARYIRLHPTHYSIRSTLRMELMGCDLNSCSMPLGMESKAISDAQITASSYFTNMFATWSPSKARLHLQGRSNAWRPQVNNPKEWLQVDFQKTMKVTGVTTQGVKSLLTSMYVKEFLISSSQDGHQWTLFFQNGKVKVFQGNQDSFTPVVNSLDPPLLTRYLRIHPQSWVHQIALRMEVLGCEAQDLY
Test: SPR, anti-His capture, FVIII injected, 37 C
Outline: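 His-tagged mutants were captured directly from culture medium onto an anti-His surface (14,000 RU) at 40-150 RU. FVIII at 1 nM was injected for 5 min, followed by 5 min dissociation. Double-referenced sensorgrams were fitted to a 1:1 kinetic model.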

B1: Hu-vWF[764-1270]-8His S766Y-P769I (other)
chain: SLYCRIPMVKLVCPADNLRAEGLECTKTCQNYDLECMSMGCVSGCLCPPGMVRHENRCVALERCPCFHQGKEYAPGETVKIGCNTCVCRDRKWNCTDHVCDATCSTIGMAHYLTFDGLKYLFPGECQYVLVQDYCGSNPGTFRILVGNKGCSHPSVKCKKRVTILVEGGEIELFDGEVNVKRPMKDETHFEVVESGRYIILLLGKALSVVWDRHLSISVVLKQTYQEKVCGLCGNFDGIQNNDLTSSNLQVEEDPVDFGNSWKVSSQCADTRKVPLDSSPATCHNNIMKQTMVDSSCRILTSDVFQDCNKLVDPEPYLDVCIYDTCSCESIGDCACFCDTIAAYAHVCAQHGKVVTWRTATLCPQSCEERNLRENGYECEWRYNSCAPACQVTCQHPEPLACPVQCVEGCHAHCPPGKILDELLQTCVDPEDCPVCEVAGRRFASGKKVTLNPSDPEHCQICHCDVVNLTCEACQEPGGLVVPPTDAPVSPTTLYVEDISEPPLHDFHHHHHHHH
B1: no binding.

B2: Hu-vWF[764-1270]-8His S766Y-P769K (other)
chain: SLYCRKPMVKLVCPADNLRAEGLECTKTCQNYDLECMSMGCVSGCLCPPGMVRHENRCVALERCPCFHQGKEYAPGETVKIGCNTCVCRDRKWNCTDHVCDATCSTIGMAHYLTFDGLKYLFPGECQYVLVQDYCGSNPGTFRILVGNKGCSHPSVKCKKRVTILVEGGEIELFDGEVNVKRPMKDETHFEVVESGRYIILLLGKALSVVWDRHLSISVVLKQTYQEKVCGLCGNFDGIQNNDLTSSNLQVEEDPVDFGNSWKVSSQCADTRKVPLDSSPATCHNNIMKQTMVDSSCRILTSDVFQDCNKLVDPEPYLDVCIYDTCSCESIGDCACFCDTIAAYAHVCAQHGKVVTWRTATLCPQSCEERNLRENGYECEWRYNSCAPACQVTCQHPEPLACPVQCVEGCHAHCPPGKILDELLQTCVDPEDCPVCEVAGRRFASGKKVTLNPSDPEHCQICHCDVVNLTCEACQEPGGLVVPPTDAPVSPTTLYVEDISEPPLHDFHHHHHHHH
B2 gave a Kd of 0.0607 nM, a koff of 0.000383 s⁻¹ and a kon of 6.31e+06 M⁻¹ s⁻¹.

B3: Hu-vWF[764-1270]-8His S766Y-P769L (other)
chain: SLYCRLPMVKLVCPADNLRAEGLECTKTCQNYDLECMSMGCVSGCLCPPGMVRHENRCVALERCPCFHQGKEYAPGETVKIGCNTCVCRDRKWNCTDHVCDATCSTIGMAHYLTFDGLKYLFPGECQYVLVQDYCGSNPGTFRILVGNKGCSHPSVKCKKRVTILVEGGEIELFDGEVNVKRPMKDETHFEVVESGRYIILLLGKALSVVWDRHLSISVVLKQTYQEKVCGLCGNFDGIQNNDLTSSNLQVEEDPVDFGNSWKVSSQCADTRKVPLDSSPATCHNNIMKQTMVDSSCRILTSDVFQDCNKLVDPEPYLDVCIYDTCSCESIGDCACFCDTIAAYAHVCAQHGKVVTWRTATLCPQSCEERNLRENGYECEWRYNSCAPACQVTCQHPEPLACPVQCVEGCHAHCPPGKILDELLQTCVDPEDCPVCEVAGRRFASGKKVTLNPSDPEHCQICHCDVVNLTCEACQEPGGLVVPPTDAPVSPTTLYVEDISEPPLHDFHHHHHHHH
B3 gave a Kd of 0.0917 nM, a koff of 0.00059 s⁻¹ and a kon of 6.44e+06 M⁻¹ s⁻¹.

B4: Hu-vWF[764-1270]-8His S766Y-P769M (other)
chain: SLYCRMPMVKLVCPADNLRAEGLECTKTCQNYDLECMSMGCVSGCLCPPGMVRHENRCVALERCPCFHQGKEYAPGETVKIGCNTCVCRDRKWNCTDHVCDATCSTIGMAHYLTFDGLKYLFPGECQYVLVQDYCGSNPGTFRILVGNKGCSHPSVKCKKRVTILVEGGEIELFDGEVNVKRPMKDETHFEVVESGRYIILLLGKALSVVWDRHLSISVVLKQTYQEKVCGLCGNFDGIQNNDLTSSNLQVEEDPVDFGNSWKVSSQCADTRKVPLDSSPATCHNNIMKQTMVDSSCRILTSDVFQDCNKLVDPEPYLDVCIYDTCSCESIGDCACFCDTIAAYAHVCAQHGKVVTWRTATLCPQSCEERNLRENGYECEWRYNSCAPACQVTCQHPEPLACPVQCVEGCHAHCPPGKILDELLQTCVDPEDCPVCEVAGRRFASGKKVTLNPSDPEHCQICHCDVVNLTCEACQEPGGLVVPPTDAPVSPTTLYVEDISEPPLHDFHHHHHHHH
Work on B4 yielded a Kd of 0.108 nM, a koff of 0.000511 s⁻¹ and a kon of 4.75e+06 M⁻¹ s⁻¹.

B5: Hu-vWF[764-1270]-8His S766Y-P769N (other)
chain: SLYCRNPMVKLVCPADNLRAEGLECTKTCQNYDLECMSMGCVSGCLCPPGMVRHENRCVALERCPCFHQGKEYAPGETVKIGCNTCVCRDRKWNCTDHVCDATCSTIGMAHYLTFDGLKYLFPGECQYVLVQDYCGSNPGTFRILVGNKGCSHPSVKCKKRVTILVEGGEIELFDGEVNVKRPMKDETHFEVVESGRYIILLLGKALSVVWDRHLSISVVLKQTYQEKVCGLCGNFDGIQNNDLTSSNLQVEEDPVDFGNSWKVSSQCADTRKVPLDSSPATCHNNIMKQTMVDSSCRILTSDVFQDCNKLVDPEPYLDVCIYDTCSCESIGDCACFCDTIAAYAHVCAQHGKVVTWRTATLCPQSCEERNLRENGYECEWRYNSCAPACQVTCQHPEPLACPVQCVEGCHAHCPPGKILDELLQTCVDPEDCPVCEVAGRRFASGKKVTLNPSDPEHCQICHCDVVNLTCEACQEPGGLVVPPTDAPVSPTTLYVEDISEPPLHDFHHHHHHHH
For B5, the Kd was 0.0325 nM, the koff was 0.00052 s⁻¹ and the kon was 1.6e+07 M⁻¹ s⁻¹.

B6: Hu-vWF[764-1270]-8His S766Y-P769Q (other)
chain: SLYCRQPMVKLVCPADNLRAEGLECTKTCQNYDLECMSMGCVSGCLCPPGMVRHENRCVALERCPCFHQGKEYAPGETVKIGCNTCVCRDRKWNCTDHVCDATCSTIGMAHYLTFDGLKYLFPGECQYVLVQDYCGSNPGTFRILVGNKGCSHPSVKCKKRVTILVEGGEIELFDGEVNVKRPMKDETHFEVVESGRYIILLLGKALSVVWDRHLSISVVLKQTYQEKVCGLCGNFDGIQNNDLTSSNLQVEEDPVDFGNSWKVSSQCADTRKVPLDSSPATCHNNIMKQTMVDSSCRILTSDVFQDCNKLVDPEPYLDVCIYDTCSCESIGDCACFCDTIAAYAHVCAQHGKVVTWRTATLCPQSCEERNLRENGYECEWRYNSCAPACQVTCQHPEPLACPVQCVEGCHAHCPPGKILDELLQTCVDPEDCPVCEVAGRRFASGKKVTLNPSDPEHCQICHCDVVNLTCEACQEPGGLVVPPTDAPVSPTTLYVEDISEPPLHDFHHHHHHHH
B6: no binding.

B7: Hu-vWF[764-1270]-8His S766Y-P769R (other)
chain: SLYCRRPMVKLVCPADNLRAEGLECTKTCQNYDLECMSMGCVSGCLCPPGMVRHENRCVALERCPCFHQGKEYAPGETVKIGCNTCVCRDRKWNCTDHVCDATCSTIGMAHYLTFDGLKYLFPGECQYVLVQDYCGSNPGTFRILVGNKGCSHPSVKCKKRVTILVEGGEIELFDGEVNVKRPMKDETHFEVVESGRYIILLLGKALSVVWDRHLSISVVLKQTYQEKVCGLCGNFDGIQNNDLTSSNLQVEEDPVDFGNSWKVSSQCADTRKVPLDSSPATCHNNIMKQTMVDSSCRILTSDVFQDCNKLVDPEPYLDVCIYDTCSCESIGDCACFCDTIAAYAHVCAQHGKVVTWRTATLCPQSCEERNLRENGYECEWRYNSCAPACQVTCQHPEPLACPVQCVEGCHAHCPPGKILDELLQTCVDPEDCPVCEVAGRRFASGKKVTLNPSDPEHCQICHCDVVNLTCEACQEPGGLVVPPTDAPVSPTTLYVEDISEPPLHDFHHHHHHHH
Binder B7 has a Kd of 0.045 nM, a koff of 0.000295 s⁻¹ and a kon of 6.55e+06 M⁻¹ s⁻¹.

B8: Hu-vWF[764-1270]-8His S766Y-P769S (other)
chain: SLYCRSPMVKLVCPADNLRAEGLECTKTCQNYDLECMSMGCVSGCLCPPGMVRHENRCVALERCPCFHQGKEYAPGETVKIGCNTCVCRDRKWNCTDHVCDATCSTIGMAHYLTFDGLKYLFPGECQYVLVQDYCGSNPGTFRILVGNKGCSHPSVKCKKRVTILVEGGEIELFDGEVNVKRPMKDETHFEVVESGRYIILLLGKALSVVWDRHLSISVVLKQTYQEKVCGLCGNFDGIQNNDLTSSNLQVEEDPVDFGNSWKVSSQCADTRKVPLDSSPATCHNNIMKQTMVDSSCRILTSDVFQDCNKLVDPEPYLDVCIYDTCSCESIGDCACFCDTIAAYAHVCAQHGKVVTWRTATLCPQSCEERNLRENGYECEWRYNSCAPACQVTCQHPEPLACPVQCVEGCHAHCPPGKILDELLQTCVDPEDCPVCEVAGRRFASGKKVTLNPSDPEHCQICHCDVVNLTCEACQEPGGLVVPPTDAPVSPTTLYVEDISEPPLHDFHHHHHHHH
B8 showed a Kd of 0.113 nM, a koff of 0.000511 s⁻¹ and a kon of 4.51e+06 M⁻¹ s⁻¹.
